# Columns and labels:
# [1] = molecular target: constitutive dimer mutant NT_(E79QE84QE119Q) of the E. australis MaSp1 N-terminal domain (Euprosthenops australis); test: SEC; Superdex 75, 2 mg ml^-1, 20 mM MES, 150 mM NaCl, 1 mM EDTA, pH 5.5, room temperature; monomer to dimer
# [2] = molecular target: constitutive dimer mutant NT_(E79QE84QE119Q) of the E. australis MaSp1 N-terminal domain (Euprosthenops australis); test: SEC; Superdex 75, 2 mg ml^-1, 20 mM Tris, 150 mM NaCl, 1 mM EDTA, pH 8, room temperature; monomer to dimer
# [3] = molecular target: recombinant fragment human surfactant protein D (human); test: native MS; ESI-MS of SEC separated protein in 100 mM ammonium acetate, pH 7.5
# [4] = molecular target: recombinant fragment human surfactant protein D (human); test: SEC; Superdex 200, 1.5 mg ml^-1, 20 mM Tris, 150 mM NaCl, 1 mM EDTA, pH 8
# [5] = molecular target: wild-type N-terminal domain (NT) of Euprosthenops australis major ampullate spidroin protein (MaSp) 1 (Euprosthenops australis); test: SEC; Superdex 75, 2 mg ml^-1, 20 mM MES, 150 mM NaCl, 1 mM EDTA, pH 5.5, room temperature; monomer to dimer
substance,measurement,setting,value
constitutive dimer mutant NT_(E79QE84QE119Q) of the E. australis MaSp1 N-terminal domain (domain or fragment),stoichiometry N,[1],2
same,stoichiometry N,[2],2
recombinant fragment human surfactant protein D (domain or fragment),stoichiometry N,[3],3
same,stoichiometry N,[4],3
wild-type N-terminal domain (NT) of Euprosthenops australis major ampullate spidroin protein (MaSp) 1 (domain or fragment),stoichiometry N,[5],2

# Source: PMC5457526
